The values that follow are results of earlier work, collected in paper PMC11348067.

For the data set, the target named is Mucin 1 (human) (UniProt P15941). The experiment in a line: not stated (cited). The following applies: aptamer/padlock annealed in water with 80 mM NaCl (2 uL of 800 mM in 20 uL), then 40 uL protein added, 30 min; pH and binding temperature not stated; ligation ….
Chain of Mucin 1 (human) (P15941 24-1158): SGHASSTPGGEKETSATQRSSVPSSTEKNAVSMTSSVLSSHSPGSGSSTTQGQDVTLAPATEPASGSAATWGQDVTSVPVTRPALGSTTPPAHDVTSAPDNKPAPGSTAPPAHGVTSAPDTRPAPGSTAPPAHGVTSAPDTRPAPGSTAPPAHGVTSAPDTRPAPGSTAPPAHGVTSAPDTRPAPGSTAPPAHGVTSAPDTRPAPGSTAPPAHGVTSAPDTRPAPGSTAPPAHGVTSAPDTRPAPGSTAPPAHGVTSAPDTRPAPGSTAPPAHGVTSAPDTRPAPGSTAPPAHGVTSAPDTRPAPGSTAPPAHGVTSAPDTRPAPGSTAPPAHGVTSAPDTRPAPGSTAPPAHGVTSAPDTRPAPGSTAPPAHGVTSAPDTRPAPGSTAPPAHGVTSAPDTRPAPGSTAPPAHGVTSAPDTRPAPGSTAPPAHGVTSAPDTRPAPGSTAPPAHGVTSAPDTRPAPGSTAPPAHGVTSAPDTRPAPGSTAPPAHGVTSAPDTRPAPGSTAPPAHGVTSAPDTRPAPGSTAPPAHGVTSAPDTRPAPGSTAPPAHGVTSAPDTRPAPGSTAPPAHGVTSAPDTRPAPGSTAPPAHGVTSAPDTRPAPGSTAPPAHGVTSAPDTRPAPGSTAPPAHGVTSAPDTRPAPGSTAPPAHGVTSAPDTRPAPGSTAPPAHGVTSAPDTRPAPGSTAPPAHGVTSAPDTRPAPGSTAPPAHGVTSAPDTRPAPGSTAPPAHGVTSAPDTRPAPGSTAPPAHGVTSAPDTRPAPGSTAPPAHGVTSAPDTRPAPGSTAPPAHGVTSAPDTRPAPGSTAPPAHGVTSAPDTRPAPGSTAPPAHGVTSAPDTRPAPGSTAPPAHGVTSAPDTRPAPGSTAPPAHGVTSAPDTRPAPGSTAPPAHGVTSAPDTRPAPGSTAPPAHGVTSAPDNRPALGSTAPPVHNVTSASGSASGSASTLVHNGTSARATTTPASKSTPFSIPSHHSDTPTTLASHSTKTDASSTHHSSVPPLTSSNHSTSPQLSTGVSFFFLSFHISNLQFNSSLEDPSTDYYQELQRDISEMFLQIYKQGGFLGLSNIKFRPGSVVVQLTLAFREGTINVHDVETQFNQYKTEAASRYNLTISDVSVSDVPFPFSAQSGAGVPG

A word on the Kd: it is the constant that tells how readily two partners part at equilibrium. Take “GCAGTTGATCCTTTGGATACCCTGGAGTGA [Mucin 1 aptamer]”: the Kd is 0.135 nM.
